# Assay results from patent publication US7098031.
# Test system: PI-SceI meganuclease
# Assay: cell_activity
# Details: mouse eggs, purified protein co-injected, DNA/protein 1:25; 3 of 10 embryos; indirect evidence of cleavage
substance,measurement,value
PI-SceI sites in PIFFLago,activity (% transgenic embryos),30
